Source: US5578310A, “Topical bioadhesive ointment compositions and their use in wound healing” (Berlex Laboratories Inc., priority 1994, dated 1996)

Experiments:
[1] = In vivo uptake and tissue distribution of 125I-TGFα from TJ-TGFα formulation on wounded cheek pouch; parameters: species or system Golden Syrian hamsters; conditions: for Distribution of 125I-TGFα in the Tissues: Small Intestine / Distribution of 125I-TGFα in the Tissues: Stomach / Distribution of 125I-TGFα in the Tissues: Submaxillary Gland / Distribution of 125I-TGFα in the Tissues: Thyroid / Distribution of 125I-TGFα in the Tissues: Tongue / Distribution of 125I-TGFα in the Tissues: Blood / Distribution of 125I-TGFα in the Tissues: Cecum / Distribution of 125I-TGFα in the Tissues: Colon / Distribution of 125I-TGFα in the Tissues: Esophagus / Distribution of 125I-TGFα in the Tissues: Kidney / Distribution of 125I-TGFα in the Tissues: Liver: cheek pouch wound; for Distribution of 125I-TGFα in the Tissues: Cheek Pouch: right-hand side cheek pouch (application site); for Distribution of 125I-TGFα in the Tissues: Skin: 25 cm^2 skin on back
Description: (§1) The TGFα-containing ointment composition of Example 2 (TJ-TGFα formulation) was subjected, both in vitro and in vivo, to evaluation to meet the therapeutical requirements for oral mucositis. The in vitro evaluation included TGFα release and extraction from the composition, autoclave sterilizability and the bioactivity and stability of TGFα in the composition. The in vivo evaluation included TGFα uptake and tissue distribution of absorbed TGFα from hamster's cheek pouch.
(§2) B. The in vivo uptake of TGFα from the TJ-TGFα formulation was determined in Golden Syrian hamsters, female, approximately 150 g using an ^125 I-TGFα formulation (specific activity-45 μci/μg), the hamster's cheek pouch having a mechanically created wound. A pharmacokinetic study of tissue distribution of TGFα absorbed by the hamsters was also conducted. The methods employed were as follows:
(§3) 1. Fast hamsters overnight.
(§4) 2. Anesthetize hamsters by I.M. injection of ketamine HCl.
(§5) 3. Create a 2 mm diameter wound on the right-hand side of hamster's cheek pouch by a biopsy punch.
(§6) 4. Following the removal of the debridement and blood clot, administer 20 μl TJ-TGFα formulation containing 26 μci 125I-TGFα onto the wound area by a Gilson Microman.
(§7) 5. Keep the hamsters in their cages and give no water or food during the course of 6 hours study.
(§8) 6. Select three hamsters at time 15 minutes, 30 minutes, 1 hour, 2 hours, 4 hours and 6 hours and select one hamster at 24 hours for TGFα uptake and tissue distribution study.
7. Punch a needle into the hamster's heart and withdrawn 1 ml blood by a 5 ml syringe.
(§9) 8. Sacrifice hamster by inhalation of an overdose of carbon dioxide vapor from dry ice in a closed chamber.
(§10) 9. Immediately after sacrificing, remove the liver, kidney, thyroid, submaxillary gland, esophagus, stomach, small intestine, cecum, colon, 25 cm^2 skin on back, tongue and right-hand side of cheek pouch.
(§11) 11. Count the CPM of ^125 I-TGFα that distributed in the hamster's tissue and GI contents.

[2] = In vivo distribution of 125I-TGFα in the GI contents from TJ-TGFα formulation on wounded cheek pouch; parameters: species or system Golden Syrian hamsters; conditions: cheek pouch wound
Description: as §1, §2, §3, §4, §5, §6, §7, §8, §9, §10
10. Flush the contents of esophagus, stomach, small intestine and cecum with water and collect the contents separately into a test tube.
as §11

## ^125 I-TGFα: 125I-labelled TGFα (specific activity 45 μci/μg) administered in TJ-TGFα formulation onto the hamster cheek pouch wound
[1]; 4 hrs.
  Distribution of 125I-TGFα in the Tissues: Small Intestine: 0.12%
  Distribution of 125I-TGFα in the Tissues: Stomach: 0.74%
  Distribution of 125I-TGFα in the Tissues: Submaxillary Gland: 0.42%
  Distribution of 125I-TGFα in the Tissues: Thyroid: 0.39%
  Distribution of 125I-TGFα in the Tissues: Tongue: 3.37%
  Distribution of 125I-TGFα in the Tissues: Cheek Pouch: 74%
[1]; 6 hrs.
  Distribution of 125I-TGFα in the Tissues: Skin: 0.13%
  Distribution of 125I-TGFα in the Tissues: Blood: 0.13%
  Distribution of 125I-TGFα in the Tissues: Cecum: 0.08%
  Distribution of 125I-TGFα in the Tissues: Colon: 0.12%
  Distribution of 125I-TGFα in the Tissues: Esophagus: 0.27%
  Distribution of 125I-TGFα in the Tissues: Kidney: 0.27%
  Distribution of 125I-TGFα in the Tissues: Liver: 0.24%
  Distribution of 125I-TGFα in the Tissues: Small Intestine: 0.15%
  Distribution of 125I-TGFα in the Tissues: Stomach: 1.06%
  Distribution of 125I-TGFα in the Tissues: Submaxillary Gland: 0.77%
  Distribution of 125I-TGFα in the Tissues: Thyroid: 0.88%
  Distribution of 125I-TGFα in the Tissues: Tongue: 1.25%
  Distribution of 125I-TGFα in the Tissues: Cheek Pouch: 84%
[1]; 24 hrs.
  Distribution of 125I-TGFα in the Tissues: Skin: 0.13%
  Distribution of 125I-TGFα in the Tissues: Blood: 0.22%
  Distribution of 125I-TGFα in the Tissues: Cecum: 0.05%
  Distribution of 125I-TGFα in the Tissues: Colon: 1.57%
  Distribution of 125I-TGFα in the Tissues: Esophagus: 0.04%
  Distribution of 125I-TGFα in the Tissues: Kidney: 0.24%
  Distribution of 125I-TGFα in the Tissues: Liver: 0.59%
  Distribution of 125I-TGFα in the Tissues: Small Intestine: 0.40%
  Distribution of 125I-TGFα in the Tissues: Stomach: 1.23%
  Distribution of 125I-TGFα in the Tissues: Submaxillary Gland: 0.77%
  Distribution of 125I-TGFα in the Tissues: Thyroid: 2.84%
  Distribution of 125I-TGFα in the Tissues: Tongue: 0.66%
  Distribution of 125I-TGFα in the Tissues: Cheek Pouch: 21%
[2]; 15 min.
  Distribution of 125I-TGFα in the GI Contents: Cecum: 0.003%
  Distribution of 125I-TGFα in the GI Contents: Esophagus: 0.00005%
  Distribution of 125I-TGFα in the GI Contents: Small Intestine: 0.003%
  Distribution of 125I-TGFα in the GI Contents: Stomach: 0.03%
[2]; 0.5 hrs.
  Distribution of 125I-TGFα in the GI Contents: Cecum: 0.01%
  Distribution of 125I-TGFα in the GI Contents: Esophagus: 0.01%
  Distribution of 125I-TGFα in the GI Contents: Small Intestine: 0.01%
  Distribution of 125I-TGFα in the GI Contents: Stomach: 0.056%
[2]; 1 hr.
  Distribution of 125I-TGFα in the GI Contents: Cecum: 0.02%
  Distribution of 125I-TGFα in the GI Contents: Esophagus: 0.002%
  Distribution of 125I-TGFα in the GI Contents: Small Intestine: 0.02%
  Distribution of 125I-TGFα in the GI Contents: Stomach: 0.20%
[2]; 2 hrs.
  Distribution of 125I-TGFα in the GI Contents: Cecum: 0.02%
  Distribution of 125I-TGFα in the GI Contents: Esophagus: 0.01%
  Distribution of 125I-TGFα in the GI Contents: Small Intestine: 0.02%
  Distribution of 125I-TGFα in the GI Contents: Stomach: 0.40%
[2]; 4 hrs.
  Distribution of 125I-TGFα in the GI Contents: Cecum: 0.04%
  Distribution of 125I-TGFα in the GI Contents: Esophagus: 0.37%
  Distribution of 125I-TGFα in the GI Contents: Small Intestine: 0.06%
  Distribution of 125I-TGFα in the GI Contents: Stomach: 4.1%
[2]; 6 hrs.
  Distribution of 125I-TGFα in the GI Contents: Cecum: 0.05%
  Distribution of 125I-TGFα in the GI Contents: Esophagus: 0.27%
  Distribution of 125I-TGFα in the GI Contents: Small Intestine: 0.05%
  Distribution of 125I-TGFα in the GI Contents: Stomach: 7.8%
[2]; 24 hrs.
  Distribution of 125I-TGFα in the GI Contents: Cecum: 2.63%
  Distribution of 125I-TGFα in the GI Contents: Esophagus: 0.01%
  Distribution of 125I-TGFα in the GI Contents: Small Intestine: 0.52%
  Distribution of 125I-TGFα in the GI Contents: Stomach: 5.5%
